In PMC5724930 (Biochemistry, 2017):
Changes are numbered by the printed parent chain. In names and notes the source's numbering stands.

Target: the molecule itself
Test: SEC; mixtures of the purified proteins; details in the Supporting Information

B1: PanD(K119A) (enzyme, E. coli, UniProt P0A790 1-126, looked up)
chain: MIRTMLQGKLHRVKVTHADLHYEGSCAIDQDFLDAAGILENEAIDIWNVTNGKRFSTYAIAAERGSRIISVNGAAAHCASVGDIVIIASFVTMPDEEARTWRPNVAYFEGDNEMKRTAAAIPVQVA
stoichiometry N: 4

B2: aspartate α-decarboxylase (PanD), wild type (from pET28apanD, for SEC) (enzyme, E. coli, UniProt P0A790 1-126, looked up)
chain: B1 chain with A119K
stoichiometry N: 4
